This passage reports faster dissociation relative to Gq and reduction of the AUC of dissociation relative to Gq results from PMC8160216.

The target of this assay is human M3R-mCit (muscarinic M3 receptor, C-terminally mCitrine-labeled) (human) (UniProt P20309). Kind of assay: FRET or BRET; single permeabilized HEK293T cells (saponin), nucleotides washed out; FRET between M3R-mCitrine and mTurquoise2-Gγ2 of the co-expressed G protein; 10 µM acetylcholine for 1 min, 2 min washout, twice; final GTPγS to induce full dissociation; stability of the complex as AUC of the normalized trace after agonist withdrawal; room temperature, internal buffer pH 7.35.
UniProt P20309, sequence (P20309 whole entry): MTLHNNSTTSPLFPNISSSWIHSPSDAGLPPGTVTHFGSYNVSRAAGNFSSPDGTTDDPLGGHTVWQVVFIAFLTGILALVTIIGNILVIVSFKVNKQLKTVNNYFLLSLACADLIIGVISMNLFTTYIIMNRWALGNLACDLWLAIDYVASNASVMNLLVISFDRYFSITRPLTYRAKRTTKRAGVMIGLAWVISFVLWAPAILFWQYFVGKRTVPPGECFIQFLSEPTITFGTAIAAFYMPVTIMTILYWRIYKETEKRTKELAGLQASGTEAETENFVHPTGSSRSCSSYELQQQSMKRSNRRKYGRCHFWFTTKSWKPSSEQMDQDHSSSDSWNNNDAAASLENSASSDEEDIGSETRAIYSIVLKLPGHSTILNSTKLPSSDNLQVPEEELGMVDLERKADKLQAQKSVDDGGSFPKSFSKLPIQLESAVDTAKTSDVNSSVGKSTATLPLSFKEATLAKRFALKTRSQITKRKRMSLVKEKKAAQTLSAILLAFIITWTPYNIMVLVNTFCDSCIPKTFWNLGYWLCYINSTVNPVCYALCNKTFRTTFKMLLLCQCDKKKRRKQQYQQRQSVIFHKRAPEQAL

With “GqoN + C11 (Gαq chimera with the N-terminus and the last 11 amino acids of Gαo, with Gβ1 and mTurq2-Gγ2) (from UniProt P59215 344-354; P62873 1-340; P63212 1-71) (complex)”, the faster dissociation relative to Gq is < 10%.

For the substance “GqoC11 (Gαq chimera with the C-terminal part of the α5 helix of Gαo, with Gβ1 and mTurq2-Gγ2) (from UniProt P21279 1-348; P59215 344-354; P62873 1-340; P63212 1-71) (complex)”, the reduction of the AUC of dissociation relative to Gq was < 5%.
